Values belong to the molecule of their own block, whether it stands above or below them.
What was measured:
[1] = target: T1, SulA (cysteate acyl-ACP transferase) (Alistipes finegoldii, UniProt I3YKQ4); assay: X-ray crystal structure […] Å (SeMet-SulA); UV-Vis […] nm internal aldimine; format: binding; details: covalent, internal aldimine at Lys251
T1 construct: gene Alfi_1224
T1 sequence (I3YKQ4 1-423): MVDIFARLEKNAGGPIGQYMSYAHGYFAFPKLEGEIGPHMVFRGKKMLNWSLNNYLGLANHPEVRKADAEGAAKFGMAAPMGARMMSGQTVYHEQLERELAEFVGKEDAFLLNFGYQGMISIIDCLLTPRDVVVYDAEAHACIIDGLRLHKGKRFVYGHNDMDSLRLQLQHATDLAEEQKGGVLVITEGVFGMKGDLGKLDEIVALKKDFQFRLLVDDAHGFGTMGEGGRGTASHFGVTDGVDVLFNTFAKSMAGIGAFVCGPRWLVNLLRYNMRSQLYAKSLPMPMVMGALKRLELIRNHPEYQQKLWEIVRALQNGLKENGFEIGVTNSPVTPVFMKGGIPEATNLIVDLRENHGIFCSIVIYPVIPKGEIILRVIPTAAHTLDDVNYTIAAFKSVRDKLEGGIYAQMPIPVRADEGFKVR

[2] = target: T2, SulA (cysteate acyl-ACP transferase) (Alistipes finegoldii, UniProt I3YKQ4, K281A); assay: UV-Vis spectral titration (external aldimine, A430); format: binding
T2 construct: gene Alfi_1224
T2 sequence (I3YKQ4 1-423 K281A): T1 sequence (I3YKQ4 1-423)
Description: UV-Vis spectral titration (external aldimine, A430) on SulA (cysteate acyl-ACP transferase) | SulA(K281A) bound cysteate and formed the PLP-cysteate external aldimine normally

[3] = target: T1, SulA (cysteate acyl-ACP transferase); assay: as above; format: binding
[4] = target: cysteate acyl-ACP transferase (SulA), His-tagged (Alistipes finegoldii) (UniProt I3YKQ4)
[5] = target: cysteate acyl-ACP transferase (SulA), His-tagged (Alistipes finegoldii) (UniProt I3YKQ4); assay: SEC; calibrated HiLoad 16/600 Superdex 200 column, 200 mM NaCl, 20 mM Tris, pH 8.0; single 85 kDa species against standards
[6] = target: cysteate acyl-ACP transferase (SulA), His-tagged (Alistipes finegoldii) (UniProt I3YKQ4); assay: AUC; sedimentation velocity, 150 mM NaCl, 1 mM DTT, 20 mM potassium phosphate buffer, pH 7.5, 20 °C, 50,000 rpm, interference optics, c(s) in SEDFIT
[7] = target: cysteate acyl-ACP transferase (SulA), His-tagged (Alistipes finegoldii) (UniProt I3YKQ4); assay: as above; remark: listed apart in the source

Molecule: Cc1ncc(COP(=O)(O)O)c(C=O)c1O [PLP]
X-ray crystal structure 2.9 Å (SeMet-SulA); UV-Vis 390 nm internal aldimine [1]: definitively identifies Lys251 as the PLP attachment site

Molecule: N[C@@H](CS(=O)(=O)O)C(=O)O [cysteate]
Kd [2]: 6.11 ± 1.1 mM | Kd [3]: 4.86 ± 0.08 mM

SulA enzyme activity (formation of 3-keto[14C]capnine, TLC) against 0-200 μM [14C]16:0-ACP with 100 mM cysteate; K0.5 of an allosteric sigmoidal fit [4]: 26.7 µM
Molecule: [14C]16:0-acyl carrier protein (from UniProt P0A6A8 1-78) (natural protein)

stoichiometry N [5]: 2 | stoichiometry N [6]: 4 | stoichiometry N [7]: 2
Molecule: cysteate acyl-ACP transferase (SulA), His-tagged (from UniProt I3YKQ4 1-423) (enzyme)

Source: article PMC9304779, “Biochemical characterization of the first step in sulfonolipid biosynthesis in Alistipes finegoldii” (The Journal of Biological Chemistry, 2022)
